The target of the test is T1, GST-tagged full-length EhJAB1 (Entamoeba histolytica, UniProt C4LTS3 1-318).
T1 construct: EhJAB1 of Entamoeba histolytica, EHI_050500, full length (gene of 957 base pairs; deletions count to residue 318), codon optimized; Cloned in pDEST15 and sub-cloned in pGEX-4T1; also called GST-EhJAB1; GST-JAB1; source: E. coli BL21(DE3); purified on glutathione-sepharose (BLI)
T1 sequence (looked up): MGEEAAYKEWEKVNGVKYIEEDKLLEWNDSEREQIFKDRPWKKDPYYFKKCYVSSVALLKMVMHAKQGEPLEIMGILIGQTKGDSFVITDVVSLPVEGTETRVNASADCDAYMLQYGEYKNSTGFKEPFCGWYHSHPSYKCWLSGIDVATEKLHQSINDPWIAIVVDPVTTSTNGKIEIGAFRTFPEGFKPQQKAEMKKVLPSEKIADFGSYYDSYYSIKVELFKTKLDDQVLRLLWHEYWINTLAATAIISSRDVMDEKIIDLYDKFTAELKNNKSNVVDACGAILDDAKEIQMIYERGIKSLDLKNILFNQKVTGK
Kind of test: BLI; GST-EhJAB1 or GST loaded on anti-GST biosensors; EhMIF 5 to 80 nM (2-fold series); 1x DPBS, 0.1% BSA, 0.02% Tween 20; association 600 s, dissociation 600 s. Conditions: both partners purified.

This note sets out measurements from PMC6035221, “Interaction between parasite-encoded JAB1/CSN5 and macrophage migration inhibitory factor proteins attenuates its proinflammatory function” (Scientific Reports, 2018).

B1: Entamoeba histolytica MIF (EhMIF), recombinant (natural protein)
chain: MPHALITLSADITEEIKKEIAHESMKILSEVIGKPISYCATQVVTSVGGFGGKIVKSAFIDIKSISGLKGKQEGLSDRYCKLLEQKAGIEGGNIYLNFTEMTGNNWGYDHSTF
With B1, the Kd was 38.6 nM.

One may read the Kd as the constant that tells how readily two partners part at equilibrium.
